We go through 16 molecules from patent US20120301394A1 (published 2012).

Where a chain is given by its changes, count along the chain named.

The target in assay [1] is T1, Recombinant mouse MMR (R&D systems) (mouse, UniProt Q61830 20-1388).
T1 construct: Bought recombinant extracellular portion of mouse MMR with a C-terminal His tag; It was immobilized on the CM5 chip for SPR and coated on plates for PE-ELISA; The SPR methods say only 'MMR'; also called mMMR; recombinant MMR
T1 sequence: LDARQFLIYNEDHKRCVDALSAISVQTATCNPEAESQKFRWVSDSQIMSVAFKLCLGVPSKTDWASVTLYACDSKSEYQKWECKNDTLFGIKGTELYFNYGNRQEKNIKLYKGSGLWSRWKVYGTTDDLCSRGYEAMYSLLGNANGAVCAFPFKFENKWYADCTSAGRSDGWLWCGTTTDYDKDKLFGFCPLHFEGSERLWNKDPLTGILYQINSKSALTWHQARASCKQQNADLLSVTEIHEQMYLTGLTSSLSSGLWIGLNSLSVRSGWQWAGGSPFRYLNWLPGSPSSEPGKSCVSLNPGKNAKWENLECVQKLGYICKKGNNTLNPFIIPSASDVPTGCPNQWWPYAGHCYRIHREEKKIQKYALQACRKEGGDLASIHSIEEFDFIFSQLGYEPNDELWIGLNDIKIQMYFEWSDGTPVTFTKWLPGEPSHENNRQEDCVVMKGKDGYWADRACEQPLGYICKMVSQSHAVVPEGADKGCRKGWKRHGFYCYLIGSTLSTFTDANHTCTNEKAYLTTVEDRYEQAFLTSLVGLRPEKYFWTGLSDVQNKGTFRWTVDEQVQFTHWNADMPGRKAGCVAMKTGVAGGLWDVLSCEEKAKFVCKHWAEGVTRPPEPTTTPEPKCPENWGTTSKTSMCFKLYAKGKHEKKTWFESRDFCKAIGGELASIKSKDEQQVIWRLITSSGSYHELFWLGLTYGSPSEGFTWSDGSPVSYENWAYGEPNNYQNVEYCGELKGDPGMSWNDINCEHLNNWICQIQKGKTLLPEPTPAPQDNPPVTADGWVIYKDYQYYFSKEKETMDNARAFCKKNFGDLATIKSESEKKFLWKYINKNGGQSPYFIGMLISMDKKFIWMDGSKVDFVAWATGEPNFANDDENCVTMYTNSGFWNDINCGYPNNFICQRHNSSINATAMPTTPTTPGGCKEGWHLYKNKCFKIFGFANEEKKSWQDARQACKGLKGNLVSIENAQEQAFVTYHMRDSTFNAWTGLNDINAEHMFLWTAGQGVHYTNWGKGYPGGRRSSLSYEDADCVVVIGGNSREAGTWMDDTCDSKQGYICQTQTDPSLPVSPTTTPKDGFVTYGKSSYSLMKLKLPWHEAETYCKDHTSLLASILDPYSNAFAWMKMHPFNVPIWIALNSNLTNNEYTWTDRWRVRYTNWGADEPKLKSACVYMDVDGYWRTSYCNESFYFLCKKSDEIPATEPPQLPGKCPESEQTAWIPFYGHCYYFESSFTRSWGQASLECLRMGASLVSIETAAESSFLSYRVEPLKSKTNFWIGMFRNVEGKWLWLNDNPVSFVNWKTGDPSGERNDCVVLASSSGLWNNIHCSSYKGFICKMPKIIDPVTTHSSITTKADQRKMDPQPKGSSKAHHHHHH
Put plainly: PE-ELISA, periplasmic extract on coated mouse MMR.

In assay [2] the target is T2, Recombinant human MMR (R&D systems) (human, UniProt P22897 19-1383).
T2 construct: Bought protein (R&D Systems #2534) coated on ELISA plates; also called hMMR; MRC1
T2 sequence: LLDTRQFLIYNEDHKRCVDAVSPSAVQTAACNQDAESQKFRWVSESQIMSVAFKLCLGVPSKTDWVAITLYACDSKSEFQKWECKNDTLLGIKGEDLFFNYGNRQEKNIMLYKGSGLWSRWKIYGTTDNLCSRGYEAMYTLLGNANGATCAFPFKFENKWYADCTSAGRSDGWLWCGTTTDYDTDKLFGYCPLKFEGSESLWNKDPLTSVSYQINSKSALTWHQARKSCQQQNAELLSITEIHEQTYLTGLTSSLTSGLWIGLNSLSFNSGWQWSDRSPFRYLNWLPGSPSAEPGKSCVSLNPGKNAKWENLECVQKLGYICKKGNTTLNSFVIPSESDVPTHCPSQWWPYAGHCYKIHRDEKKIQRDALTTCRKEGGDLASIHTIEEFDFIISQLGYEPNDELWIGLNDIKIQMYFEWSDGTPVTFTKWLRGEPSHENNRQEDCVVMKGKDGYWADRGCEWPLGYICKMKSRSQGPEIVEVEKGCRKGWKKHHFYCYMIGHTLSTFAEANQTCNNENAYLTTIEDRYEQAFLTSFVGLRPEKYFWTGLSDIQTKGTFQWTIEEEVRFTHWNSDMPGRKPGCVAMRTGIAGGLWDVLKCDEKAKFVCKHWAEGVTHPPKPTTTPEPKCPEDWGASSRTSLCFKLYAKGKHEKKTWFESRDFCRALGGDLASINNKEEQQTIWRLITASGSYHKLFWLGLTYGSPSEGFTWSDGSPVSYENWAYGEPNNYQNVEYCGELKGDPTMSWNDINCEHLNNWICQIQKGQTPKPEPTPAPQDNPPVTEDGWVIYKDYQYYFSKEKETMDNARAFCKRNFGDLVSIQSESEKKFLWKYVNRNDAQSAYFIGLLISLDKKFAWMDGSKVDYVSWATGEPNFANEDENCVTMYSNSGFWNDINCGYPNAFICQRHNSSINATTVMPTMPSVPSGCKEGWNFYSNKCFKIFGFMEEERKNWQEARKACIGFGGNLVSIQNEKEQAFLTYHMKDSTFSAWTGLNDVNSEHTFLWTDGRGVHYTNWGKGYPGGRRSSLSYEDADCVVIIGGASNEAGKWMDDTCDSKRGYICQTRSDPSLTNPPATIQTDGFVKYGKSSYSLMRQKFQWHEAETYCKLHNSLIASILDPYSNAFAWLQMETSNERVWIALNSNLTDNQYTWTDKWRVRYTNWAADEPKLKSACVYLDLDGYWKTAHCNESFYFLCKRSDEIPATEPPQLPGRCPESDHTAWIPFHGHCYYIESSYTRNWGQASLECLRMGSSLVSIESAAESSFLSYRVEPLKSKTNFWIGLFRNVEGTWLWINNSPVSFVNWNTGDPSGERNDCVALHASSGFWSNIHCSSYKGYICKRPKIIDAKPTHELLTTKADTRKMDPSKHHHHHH
Put plainly: PE-ELISA, periplasmic extract on coated human MMR.

For assay [3], the target named is T2, Recombinant human MMR (R&D systems). The assay can be described thus: PE-ELISA, periplasmic extract on coated human MMR, OD405 at least 3x over milk-blocking proteins.

B1: NbhmMMRm19.52 (VHH)
VHH: QVQLQESGGGLVQAGGSLRLSCLASGDTFSNYVMAWFRQAPGKEREIVAAIRLSGARYVPDSVKGRFTISRDNAKNAMYLQMTSLKPEDTARYYCAAGHTWGQYAYWGQGTQVTVSS
notes: Tested as a periplasmic extract in PE-ELISA
Regarding B1, the binding result in assay [1] and in assay [2] was “binds” each time.

B2: NbhmMMRm14.4 (VHH)
VHH: QVQLQESGGGLVQAGDSLRLSCAASGRTFSINYMGWYRQAPGKQRELVAAITSGSGSTNYADSVKGRFTISRDNAKNTMYLQMNSLKPEDTAVYYCNADMDSSLSGGYVDVWGQGTQVTVSS
notes: as for B1
As for B2, the binding result in assay [1] and in assay [2] was “binds” in each case.

B3: NbhmMMRm14.93 (VHH)
VHH: B2 VHH with N77K
notes: as for B1
With B3, the binding result in assay [1] and in assay [2] was “binds” in each case.

B4: NbhMMRm2.15 (VHH)
VHH: QVQLQESGGGLVQPGESLRLSCKLSGFTLDYYDIGWFRQAPGKEREGVSCISSIGGSANYADSVKGRFTISRDNVKNTVYLQMNSLKPEDTAIYYCAAEAQTPYNDGDCTRASYDYWGQGIQVTVSS
notes: as for B1
In the case of B4, the binding result in assay [3] is given as “binds”.

B5: NbhMMRm10.19 (VHH)
VHH: QVQLQESGGGLVQPGGSLKLSCAASGSIFSIKTMGWYRQAPGKQRELVAAITSGGSTNYADSVKGRFTISRDNAKNTVYLQMNSLKPEDTAVYYCNADGVVAWDQPYDNYWGQGTQVTVSS
notes: as for B1
Regarding B5, the binding result in assay [3] was “binds”.

B6: NbhmMMRm10.79 (VHH)
VHH: B5 VHH with I51V, T52S, T77A
notes: as for B1
Take B6: the binding result in assay [1] and in assay [2] was “binds” in each case.

B7: NbhmMMRm20.52 (VHH)
VHH: QVQLQESGGGLVQAGGSLRLSCAASGRIFSAYAMGWFRQAPGKEREFVAAISRSGDSTDYADSVKGRFTISRDSAKNMVYLQMNSLKPEDTALYHCAARTVSAPPSAAWGYGYWGQGTQVTVSS
notes: as for B1
In the case of B7, the binding result in assay [1] and in assay [2] was “binds” in each case.

B8: NbhmMMRm6.71 (VHH)
VHH: QVQLQESGGGLVQAGGSLRLSCAASGGTFDDSVIGWFRQAPGKEREGVSCISSNDGTTHYASPVKGRFTISSDNAKNTVYLQMNSLKPEDTAVYYCAAETPSIGSPCTSASYDYWGQGTQVTVSS
notes: as for B1
Consider B8, for which the binding result in assay [1] and in assay [2] was “binds” in each case.

B9: NbhMMRm1.33 (VHH)
VHH: QVQLQESGGGLVQPGGSLRLSCAASGFTLDNYTVAWFRQAPGKEREGVSCISSSGGSTNYADSVKGRFTISRDNSKKSVYLQMNSLKPEDTAIYTCAAERAPPYYSGYYFFDSTCVAASYDYWGQGTQVTVSS
notes: as for B1
Regarding B9, the binding result in assay [3] is “binds”.

B10: NbhmMMRm15.49 (VHH)
VHH: QVQLQESGGGLVQAGGSLRLSCAASGSTFSINNMGWYRQAPGKQRELVAGITGGNTHYADSVKGRFTISRDNAKNTMYLQMNSLKPEDTAVYYCNANWGAYWGQGTQVTVSS
notes: as for B1
With B10, the binding result in assay [1] and in assay [2] was “binds” throughout.

B11: NbhmMMRm22.84 (VHH)
VHH: QVQLQESGGGLVQPGGSLRLSCAASGRTFSNYVNYAMGWFRQFPGKEREFVASISWSSVTTYYADSVKGRFTISRDNAKNTVYLQMNSLKPEDTAVYYCAAHLAQYSDYAYRDPHQFGAWGQGTQVTVSS
notes: as for B1
For the molecule B11, the binding result in assay [1] and in assay [2] was “binds” in each case.

B12: NbhmMMRm17.72 (VHH)
VHH: QVQLQESGGGLVQPGGSLRLSCAASGSIVSINAMGWYRQAPGKQRELVALVTGSGRTNLADSVKGRFTISRDNAKNTVYLQMNSLKPEDTAVYYCNVLVIGPLEGYDYWGQGTQVTVSS
notes: as for B1
As for B12, the binding result in assay [1] and in assay [2] was “binds” in each case.

B13: NbhmMMRm24.31 (VHH)
VHH: QVQLQESGGGLVQPGGSLRLSCTATGFTLKNHHIGWLRQAPGKEREGVASINSSGGSTNYADSVQGRFTISRDNAKNTVFLQMNSLKSEDTAVYYCARLRRYYGLNLDPGSYDYWGQGTQVTVSS
notes: as for B1
For the molecule B13, the binding result in assay [1] and in assay [2] was “binds” each time.

B14: NbhMMRm3.1 (VHH)
VHH: QVQLQESGGGLVQPGGSLRLSCAASGFTLDYYAIGWFRQAPGKEREGISCISYKGGSTTYADSVKGRFTISKDNAKNTAYLQMNNLKPEDTGIYYCAAGFVCYNYDYWGPGTQVTVSS
notes: as for B1
Take B14: the binding result in assay [3] is listed as “binds”.

B15: NbhmMMRm3.49 (VHH)
VHH: B14 VHH with T28S, N85S, Y95S, P110Q
notes: as for B1
For B15, the binding result in assay [1] and in assay [2] was “binds” each time.

B16: NbhMMRm5.38 (VHH)
VHH: QVQLQESGGGLVQAGGSLRLSCAASGFTDDDYDIGWFRQAPGKEREGVSCISSSDGSTYYADSVKGRFTISSDNAKNTVYLQMNSLKPEDTAVYYCAADFFRWDSGSYYVRGCRHATYDYWGQGTQVTVSS
notes: as for B1
In the case of B16, the binding result in assay [3] is “binds”.
